Literature values in article PMC7308888, “Development of a cell-free split-luciferase biochemical assay as a tool for screening for inhibitors of challenging protein-protein interaction targets” (Wellcome Open Research, 2020).

Biological target: RAF (Homo sapiens) (UniProt P04049)

Kd: 0.02 µM
Substance: RAS (from UniProt P01116)
